Among the data in patent publication US20170313762A1 are EC50 of agonist-promoted receptor internalization (decrease of BRET between receptor-RlucII and lyn-rGFP) values, retold here.

This assay deals with vasopressin V2 receptor-RlucII (hV2R wt-RlucII) (human). The assay is described as follows: cell-based or functional assay.

Take “Oxytocin (from UniProt P01178 20-28) (peptide)”: the EC50 of agonist-promoted receptor internalization (decrease of BRET between receptor-RlucII and lyn-rGFP) was 2200 nM.
